This is an account of results in patent US20180207191A1, “HUMAN CANCER MICRO-RNA EXPRESSION PROFILES PREDICTIVE OF CHEMO-RESPONSE” (H. LEE MOFFITT CANCER CENTER AND RESEARCH INSTITUTE, INC., priority 2010, published 2018).

In data set [1] the test system is renal cell line 786-0. The note with it: 786-0 renal cell line; publicly available GI50; cited from earlier work.
Data set [2] concerns renal cell line TK-10. As to conditions: TK-10 renal cell line; publicly available GI50; cited from earlier work.
Data set [3] relates to miR-367. The experiment in a line: Real-time quantitative RT-PCR of miR-367 after transfection, 786-0 cells. The data set is classed as cell-based, human. As to conditions: 50 nM final, QPCR normalized to RNU44. The method, then:
(§1) miR-367 Transfection. Pre-miR-367 and Anti-miR-367 were purchased from Ambion. Log-phase cells (˜60% confluency) were transfected with 6.25 μM Pre-miR-367 or Anti-miR-367 using siPORT NeoFX transfection reagent (Ambion) at a final concentration of 50 nM according to manufacturer's instructions. Controls included transfection of a non-targeting miRNA (Negative Control #1).
(§2) Real-time Quantitative RT-PCR of miRNA. Real-time Quantitative RT-PCR was used to validate successful miRNA transfection. TaqMan®MicroRNA Reverse Transcription kit (Applied Biosystems) was used to convert specific miRNAs to cDNA. RNU44 was used as control for quantification. Per Applied Biosystems' protocol, real-time PCR was performed adding 1.34 μl of each completed RT reaction to target TaqMan microRNA Assay reaction with TaqMan Universal PCR Master Mix (final reaction volume equal 20 μl). Samples (786-0 and TK-10 cell lines transfected with Pre-miR-367 precursor, Anti-miR-367 inhibitor, and Anti-miR-inhibitor Negative Control #1) were evaluated in triplicate and run on the Applied Biosystems 7900HT Fast Real-Time PCR System. Assay data was analyzed using SDS 2.2.2 software.

Data set [4] concerns miR-367. The experiment in a line: Real-time quantitative RT-PCR of miR-367 after transfection, TK-10 cells. The data set is classed as cell-based, human. As to conditions: 50 nM final, QPCR normalized to RNU44. The method, then: as §1, §2
For data set [5], the system named is TK-10 cells. Put plainly: Growth inhibition assay (CellTiter-Glo), topotecan after miR-367 modulation. The data set is classed as cell-based, human. As to conditions: TK-10 cells (topotecan resistant, low miR-367), topotecan 48 hours, 24 hours after transfection. The method, then: as §1
(§3) Growth inhibition assay. Topotecan, obtained from Sequola Research Products Ltd, was dissolved in DMSO (Sigma) at concentration of 20 mM and stored at −20° C. Cells were seeded in 96-well plates (Nunc) at a density of 5×10^5 cells per ml and incubated overnight at 37° C. Cells were incubated with the indicated concentrations of topotecan for 48 hours and cell viability was analyzed using the CellTiter-Glo™ luminescent cell viability assay kit (Promega). Luminescence was recorded using Wallac Victor^2™ 1420 Multilabel Counter (Perkin Elmer Life Sciences). Wells containing medium without cells were used to obtain background luminescence. All experimental wells and controls were set up in triplet.
(§4) The effects of miR-367 modulation on topotecan-induced cell death and growth arrest were evaluated using the CellTiter-Glo' luminescent cell viability assay (FIG. 2). Twenty-four hours after transfection, cells were subject to 48 hours of topotecan treatment.
(Cellular ATP, detected with luciferase, serves as a proxy for viable cell number.)

Data set [6] concerns 786-0 cells. The description is as above. The data set is classed as cell-based, human. The note with it: 786-0 cells (topotecan sensitive, high miR-367), topotecan 48 hours, 24 hours after transfection. Here is the method: as §1, §3, §4

On to `CC[C@@]1(O)C(=O)OCc2c1cc1n(c2=O)Cc2cc3c(CN(C)C)c(O)ccc3nc2-1` [Topotecan], for which the figures for the “log10 GI50” value in data set [1] and in data set [2] were −7.903 and −5.279, respectively.

B1: Pre-miR-367: precursor of miR-367 purchased from Ambion; exemplified pre-miR367 precursor sequence SEQ ID NO:158 (nucleic acid)
chain: CCAUUACUGUUGCUAAUAUGCAACUCUGUUGAAUAUAAAUUGGAAUUGCACUUUAGCAAUGGUGAUGG
modifications: listed as RNA, chemistry not given here
B1: the “miR-367 levels compared to non-targeting miRNA control” value in data set [3] and in data set [4] was “increase” throughout. Besides, the “change in sensitivity to topotecan-induced cell death and growth arrest vs non-targeting control” value was “significantly increased cell death and growth arrest induced by topotecan” in data set [5]; “increased sensitivity to topotecan” in data set [5] (listed as miR-367 precursor); “increase in topotecan-induced cell death” in data set [5] (listed as pre-miR-367); “significant increase in topotecan-induced cell death and growth arrest” in data set [5] (listed as precursor to miR-367); “No differences in topotecan sensitivity” in data set [6]; “increase in topotecan-induced cell death” in data set [6] (listed as pre-miR-367).
